# Patent EP4692114A1, “CALCITONIN ANALOGUE, AND DERIVATIVE THEREOF AND USE THEREOF” (Hangzhou Sciwind Biosciences Co., Ltd., priority 2023, dated 2024)
# *1 amine or outer side, *2 acyl side, *3 side chain or, on linkers, in order; H or OH if unused. Primed or numbered codes have the meaning given here. The star is where a group is joined. C20 diacid = O=C(O)CCCCCCCCCCCCCCCCCCC(=O)*; C18 diacid = O=C(O)CCCCCCCCCCCCCCCCC(=O)*; γGlu = O=C(O)[C@H](CCC(=O)[*:2])N[*:1]; βAsp = O=C(O)[C@H](CC(=O)[*:2])N[*:1]; Inp′ = not defined here; Trx′ = not defined here; AEEA = NCCOCCOCC(=O)O
# T1: human amylin receptor (AMY3) on CHO-K1/Gal5/AMY3 cells (human, UniProt P30988 25-474; O60896 24-148)
# T1 sequence (looked up) 1: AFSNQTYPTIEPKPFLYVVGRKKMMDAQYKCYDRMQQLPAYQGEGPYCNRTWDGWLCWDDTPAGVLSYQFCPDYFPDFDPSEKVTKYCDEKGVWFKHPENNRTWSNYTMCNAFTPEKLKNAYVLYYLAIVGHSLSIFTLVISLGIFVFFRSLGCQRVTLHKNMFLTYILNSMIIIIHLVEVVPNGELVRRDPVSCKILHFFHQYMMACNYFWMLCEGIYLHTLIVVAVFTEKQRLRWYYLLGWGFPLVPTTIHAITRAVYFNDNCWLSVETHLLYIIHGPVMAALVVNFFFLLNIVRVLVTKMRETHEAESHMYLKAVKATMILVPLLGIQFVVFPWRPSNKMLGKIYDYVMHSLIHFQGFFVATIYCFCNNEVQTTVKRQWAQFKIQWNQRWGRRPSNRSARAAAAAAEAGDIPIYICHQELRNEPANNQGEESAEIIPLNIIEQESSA
# T1 sequence (looked up) 2: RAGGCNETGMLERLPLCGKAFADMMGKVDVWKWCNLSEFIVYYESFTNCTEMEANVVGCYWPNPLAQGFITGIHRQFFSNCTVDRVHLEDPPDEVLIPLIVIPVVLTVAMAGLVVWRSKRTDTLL
# Target: T1, human amylin receptor (AMY3) on …
# Assay: cell-based or functional assay
row,Binder,"EC50/nM, CRE-luciferase in amylin receptor/CRE-luc CHO cells"
1,{C20 diacid-Inp′}-ASQLSTAVLGRLSDELHRLQDYPRTDVGSGSP-NH2 [calcitonin derivative M47],0.082 nM
2,{C20 diacid-γGlu}-SSQLSTSVLGRLSQELHRLQDYPRTDVGSGSP-NH2 (SMILES CC(C)C[C@H](NC(=O)[C@H](CCCNC(=N)N)NC(=O)CNC(=O)[C@H](CC(C)C)NC(=O)[C@@H](NC(=O)[C@H](CO)NC(=O)[C@@H](NC(=O)[C@H](CO)NC(=O)[C@H](CC(C)C)NC(=O)[C@H](CCC(N)=O)NC(=O)[C@H](CO)NC(=O)[C@H](CO)NC(=O)CC[C@H](NC(=O)CCCCCCCCCCCCCCCCCCC(=O)O)C(=O)O)[C@@H](C)O)C(C)C)C(=O)N[C@@H](CO)C(=O)N[C@@H](CCC(N)=O)C(=O)N[C@@H](CCC(=O)O)C(=O)N[C@@H](CC(C)C)C(=O)N[C@@H](Cc1c[nH]cn1)C(=O)N[C@@H](CCCNC(=N)N)C(=O)N[C@@H](CC(C)C)C(=O)N[C@@H](CCC(N)=O)C(=O)N[C@@H](CC(=O)O)C(=O)N[C@@H](Cc1ccc(O)cc1)C(=O)N1CCC[C@H]1C(=O)N[C@@H](CCCNC(=N)N)C(=O)N[C@H](C(=O)N[C@@H](CC(=O)O)C(=O)N[C@H](C(=O)NCC(=O)N[C@@H](CO)C(=O)NCC(=O)N[C@@H](CO)C(=O)N1CCC[C@H]1C(N)=O)C(C)C)[C@@H](C)O) [calcitonin derivative M28],0.017 nM
3,{C18 diacid-Trx′}-ASQLSTAVLGRLSDELHRLQDYPRTDVGSGSP-NH2 (reading uncertain) [calcitonin derivative M46],0.119 nM
4,{C20 diacid-γGlu}-SSQLSTAVLGRLSQELHRLQDYPRTDVGSGSP-NH2 (SMILES CC(C)C[C@H](NC(=O)[C@H](CCCNC(=N)N)NC(=O)CNC(=O)[C@H](CC(C)C)NC(=O)[C@@H](NC(=O)[C@H](C)NC(=O)[C@@H](NC(=O)[C@H](CO)NC(=O)[C@H](CC(C)C)NC(=O)[C@H](CCC(N)=O)NC(=O)[C@H](CO)NC(=O)[C@H](CO)NC(=O)CC[C@H](NC(=O)CCCCCCCCCCCCCCCCCCC(=O)O)C(=O)O)[C@@H](C)O)C(C)C)C(=O)N[C@@H](CO)C(=O)N[C@@H](CCC(N)=O)C(=O)N[C@@H](CCC(=O)O)C(=O)N[C@@H](CC(C)C)C(=O)N[C@@H](Cc1c[nH]cn1)C(=O)N[C@@H](CCCNC(=N)N)C(=O)N[C@@H](CC(C)C)C(=O)N[C@@H](CCC(N)=O)C(=O)N[C@@H](CC(=O)O)C(=O)N[C@@H](Cc1ccc(O)cc1)C(=O)N1CCC[C@H]1C(=O)N[C@@H](CCCNC(=N)N)C(=O)N[C@H](C(=O)N[C@@H](CC(=O)O)C(=O)N[C@H](C(=O)NCC(=O)N[C@@H](CO)C(=O)NCC(=O)N[C@@H](CO)C(=O)N1CCC[C@H]1C(N)=O)C(C)C)[C@@H](C)O) [calcitonin derivative M30],0.017 nM
5,{C20 diacid-γGlu}-ASQLSTAVLGRLSQELHRLEEYPRTDVGSGSP-NH2 (SMILES CC(C)C[C@H](NC(=O)[C@H](CCCNC(=N)N)NC(=O)CNC(=O)[C@H](CC(C)C)NC(=O)[C@@H](NC(=O)[C@H](C)NC(=O)[C@@H](NC(=O)[C@H](CO)NC(=O)[C@H](CC(C)C)NC(=O)[C@H](CCC(N)=O)NC(=O)[C@H](CO)NC(=O)[C@H](C)NC(=O)CC[C@H](NC(=O)CCCCCCCCCCCCCCCCCCC(=O)O)C(=O)O)[C@@H](C)O)C(C)C)C(=O)N[C@@H](CO)C(=O)N[C@@H](CCC(N)=O)C(=O)N[C@@H](CCC(=O)O)C(=O)N[C@@H](CC(C)C)C(=O)N[C@@H](Cc1c[nH]cn1)C(=O)N[C@@H](CCCNC(=N)N)C(=O)N[C@@H](CC(C)C)C(=O)N[C@@H](CCC(=O)O)C(=O)N[C@@H](CCC(=O)O)C(=O)N[C@@H](Cc1ccc(O)cc1)C(=O)N1CCC[C@H]1C(=O)N[C@@H](CCCNC(=N)N)C(=O)N[C@H](C(=O)N[C@@H](CC(=O)O)C(=O)N[C@H](C(=O)NCC(=O)N[C@@H](CO)C(=O)NCC(=O)N[C@@H](CO)C(=O)N1CCC[C@H]1C(N)=O)C(C)C)[C@@H](C)O) [calcitonin derivative M14],0.017 nM
6,{C20 diacid-γGlu}-ASQLSTSVLGRLSQELHRLQDYPRTDVGSGSP-NH2 (SMILES CC(C)C[C@H](NC(=O)[C@H](CCCNC(=N)N)NC(=O)CNC(=O)[C@H](CC(C)C)NC(=O)[C@@H](NC(=O)[C@H](CO)NC(=O)[C@@H](NC(=O)[C@H](CO)NC(=O)[C@H](CC(C)C)NC(=O)[C@H](CCC(N)=O)NC(=O)[C@H](CO)NC(=O)[C@H](C)NC(=O)CC[C@H](NC(=O)CCCCCCCCCCCCCCCCCCC(=O)O)C(=O)O)[C@@H](C)O)C(C)C)C(=O)N[C@@H](CO)C(=O)N[C@@H](CCC(N)=O)C(=O)N[C@@H](CCC(=O)O)C(=O)N[C@@H](CC(C)C)C(=O)N[C@@H](Cc1c[nH]cn1)C(=O)N[C@@H](CCCNC(=N)N)C(=O)N[C@@H](CC(C)C)C(=O)N[C@@H](CCC(N)=O)C(=O)N[C@@H](CC(=O)O)C(=O)N[C@@H](Cc1ccc(O)cc1)C(=O)N1CCC[C@H]1C(=O)N[C@@H](CCCNC(=N)N)C(=O)N[C@H](C(=O)N[C@@H](CC(=O)O)C(=O)N[C@H](C(=O)NCC(=O)N[C@@H](CO)C(=O)NCC(=O)N[C@@H](CO)C(=O)N1CCC[C@H]1C(N)=O)C(C)C)[C@@H](C)O) [calcitonin derivative M29],0.017 nM
7,{C20 diacid-γGlu}-ASQLSTAVLGRLSQELHRLQDYPRTQVGSGSP-NH2 (SMILES CC(C)C[C@H](NC(=O)[C@H](CCCNC(=N)N)NC(=O)CNC(=O)[C@H](CC(C)C)NC(=O)[C@@H](NC(=O)[C@H](C)NC(=O)[C@@H](NC(=O)[C@H](CO)NC(=O)[C@H](CC(C)C)NC(=O)[C@H](CCC(N)=O)NC(=O)[C@H](CO)NC(=O)[C@H](C)NC(=O)CC[C@H](NC(=O)CCCCCCCCCCCCCCCCCCC(=O)O)C(=O)O)[C@@H](C)O)C(C)C)C(=O)N[C@@H](CO)C(=O)N[C@@H](CCC(N)=O)C(=O)N[C@@H](CCC(=O)O)C(=O)N[C@@H](CC(C)C)C(=O)N[C@@H](Cc1c[nH]cn1)C(=O)N[C@@H](CCCNC(=N)N)C(=O)N[C@@H](CC(C)C)C(=O)N[C@@H](CCC(N)=O)C(=O)N[C@@H](CC(=O)O)C(=O)N[C@@H](Cc1ccc(O)cc1)C(=O)N1CCC[C@H]1C(=O)N[C@@H](CCCNC(=N)N)C(=O)N[C@H](C(=O)N[C@@H](CCC(N)=O)C(=O)N[C@H](C(=O)NCC(=O)N[C@@H](CO)C(=O)NCC(=O)N[C@@H](CO)C(=O)N1CCC[C@H]1C(N)=O)C(C)C)[C@@H](C)O) [calcitonin derivative M15],0.016 nM

# The next lines start with the values.
row,"EC50/nM, CRE-luciferase in amylin receptor/CRE-luc CHO cells",Binder
1,0.037 nM,{C20 diacid-γGlu-AEEA-AEEA-AEEA-AEEA}-ASQLSTAVLGRLSEELHRLQDYPRTDVGSGSP-NH2 (SMILES CC(C)C[C@H](NC(=O)[C@H](CCCNC(=N)N)NC(=O)CNC(=O)[C@H](CC(C)C)NC(=O)[C@@H](NC(=O)[C@H](C)NC(=O)[C@@H](NC(=O)[C@H](CO)NC(=O)[C@H](CC(C)C)NC(=O)[C@H](CCC(N)=O)NC(=O)[C@H](CO)NC(=O)[C@H](C)NC(=O)COCCOCCNC(=O)COCCOCCNC(=O)COCCOCCNC(=O)COCCOCCNC(=O)CC[C@H](NC(=O)CCCCCCCCCCCCCCCCCCC(=O)O)C(=O)O)[C@@H](C)O)C(C)C)C(=O)N[C@@H](CO)C(=O)N[C@@H](CCC(=O)O)C(=O)N[C@@H](CCC(=O)O)C(=O)N[C@@H](CC(C)C)C(=O)N[C@@H](Cc1c[nH]cn1)C(=O)N[C@@H](CCCNC(=N)N)C(=O)N[C@@H](CC(C)C)C(=O)N[C@@H](CCC(N)=O)C(=O)N[C@@H](CC(=O)O)C(=O)N[C@@H](Cc1ccc(O)cc1)C(=O)N1CCC[C@H]1C(=O)N[C@@H](CCCNC(=N)N)C(=O)N[C@H](C(=O)N[C@@H](CC(=O)O)C(=O)N[C@H](C(=O)NCC(=O)N[C@@H](CO)C(=O)NCC(=O)N[C@@H](CO)C(=O)N1CCC[C@H]1C(N)=O)C(C)C)[C@@H](C)O) [calcitonin derivative M63]
2,0.016 nM,{C20 diacid-Inp′-AEEA-AEEA}-ASQLSTAVLGRLSEELHRLQDYPRTDVGSGSP-NH2 [calcitonin derivative M62]
3,0.063 nM,{C18 diacid-Inp′}-ASQLSTAVLGRLSDELHRLQDYPRTDVGSGSP-NH2 [calcitonin derivative M48]
4,0.017 nM,{C20 diacid-βAsp}-ASQLSTAVLGRLSEELHRLQDYPRTDVGSGSP-NH2 (SMILES CC(C)C[C@H](NC(=O)[C@H](CCCNC(=N)N)NC(=O)CNC(=O)[C@H](CC(C)C)NC(=O)[C@@H](NC(=O)[C@H](C)NC(=O)[C@@H](NC(=O)[C@H](CO)NC(=O)[C@H](CC(C)C)NC(=O)[C@H](CCC(N)=O)NC(=O)[C@H](CO)NC(=O)[C@H](C)NC(=O)C[C@H](NC(=O)CCCCCCCCCCCCCCCCCCC(=O)O)C(=O)O)[C@@H](C)O)C(C)C)C(=O)N[C@@H](CO)C(=O)N[C@@H](CCC(=O)O)C(=O)N[C@@H](CCC(=O)O)C(=O)N[C@@H](CC(C)C)C(=O)N[C@@H](Cc1c[nH]cn1)C(=O)N[C@@H](CCCNC(=N)N)C(=O)N[C@@H](CC(C)C)C(=O)N[C@@H](CCC(N)=O)C(=O)N[C@@H](CC(=O)O)C(=O)N[C@@H](Cc1ccc(O)cc1)C(=O)N1CCC[C@H]1C(=O)N[C@@H](CCCNC(=N)N)C(=O)N[C@H](C(=O)N[C@@H](CC(=O)O)C(=O)N[C@H](C(=O)NCC(=O)N[C@@H](CO)C(=O)NCC(=O)N[C@@H](CO)C(=O)N1CCC[C@H]1C(N)=O)C(C)C)[C@@H](C)O) [calcitonin derivative M53]
